Assay results reported in publication PMC3129650 (Journal of immunology (Baltimore, Md. : 1950), 2011).

Target: T1, Native purified human beta2-glycoprotein I (β2GPI) (human, UniProt P02749 20-345)
T1 sequence (looked up): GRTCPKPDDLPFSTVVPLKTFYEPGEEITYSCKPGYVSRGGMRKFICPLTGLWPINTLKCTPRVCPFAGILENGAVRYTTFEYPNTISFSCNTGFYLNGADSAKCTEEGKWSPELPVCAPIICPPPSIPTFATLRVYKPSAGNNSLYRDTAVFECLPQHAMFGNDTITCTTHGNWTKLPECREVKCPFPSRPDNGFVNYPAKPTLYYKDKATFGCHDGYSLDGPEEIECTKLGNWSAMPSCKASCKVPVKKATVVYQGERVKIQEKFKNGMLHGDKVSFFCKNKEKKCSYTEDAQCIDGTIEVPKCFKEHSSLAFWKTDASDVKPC
Experiment: ELISA

B1: MBP-Ro60 aa 82–244 (domain or fragment)
chain: not shown
modifications: biotin (Sulfo-NHS-Biotin)
binding result: binds
